Results as given in US20020123614A1 (published 2002).

T1: recombinant ICAM-2 Fc chimera (UniProt P13598 25-223, limits assumed)
T1 construct: amine-coupled to the BIAcore chip; not shown: Fc part, not described
T1 sequence (looked up): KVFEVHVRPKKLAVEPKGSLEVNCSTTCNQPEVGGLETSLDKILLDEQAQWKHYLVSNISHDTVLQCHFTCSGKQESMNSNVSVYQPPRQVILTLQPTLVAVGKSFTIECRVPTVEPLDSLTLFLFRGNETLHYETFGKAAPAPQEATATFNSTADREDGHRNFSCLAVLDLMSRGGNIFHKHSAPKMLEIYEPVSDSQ

T2: recombinant ICAM-3 Fc chimera (UniProt P32942 30-485, limits assumed)
T2 construct: amine-coupled to the BIAcore chip; not shown: Fc part, not described
T2 sequence (looked up): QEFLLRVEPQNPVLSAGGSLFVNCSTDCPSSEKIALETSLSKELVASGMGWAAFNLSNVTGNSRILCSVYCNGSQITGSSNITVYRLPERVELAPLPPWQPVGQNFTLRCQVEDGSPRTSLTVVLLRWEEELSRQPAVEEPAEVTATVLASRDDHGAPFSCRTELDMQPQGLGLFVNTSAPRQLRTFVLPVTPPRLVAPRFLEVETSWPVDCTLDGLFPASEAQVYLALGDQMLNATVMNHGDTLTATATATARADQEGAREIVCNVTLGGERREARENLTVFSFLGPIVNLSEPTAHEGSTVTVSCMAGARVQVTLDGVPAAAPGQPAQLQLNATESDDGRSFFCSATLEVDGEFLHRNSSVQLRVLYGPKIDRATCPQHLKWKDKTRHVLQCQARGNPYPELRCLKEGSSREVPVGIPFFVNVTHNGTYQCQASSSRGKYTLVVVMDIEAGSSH


Key:
[1] = target: T1, recombinant ICAM-2 Fc chimera; assay: BIAcore, 1 mM MgCl2
Experimental: (§1) The recombinant proteins were purified from inclusion bodies by solubilization of inclusion bodies in 6M guanidine HCl and were refolded by dilution in the presence of 0.1 mM Cu²⁺/phenanthrolin to enhance formation of disulfide bonds. Protein was concentrated by ammonium sulfate precipitation, dialyzed, and purified over a monoQ ion-exchange column. […] The recombinant proteins were then purified by gel filtration and concentrated by Centriprep. For BIAcore™ analysis, recombinant ICAM-1, ICAM-2 and ICAM-3 Fc chimeras were immobilized on the BIAcore™ sensor chip by an amine-coupling method. Recombinant αL I-domains were flowed in, and BIAcore™ assays were performed with Tris-buffered saline supplemented with 1 mM MgCl₂ or 2 mM EDTA, at a flow rate of 10 μl/minute at 25° C.

[2] = target: T2, recombinant ICAM-3 Fc chimera; assay: BIAcore, 1 mM MgCl2
Experimental: as §1

[3] = target: T3, recombinant ICAM-1 Fc chimera (UniProt P05362 28-480, limits assumed); assay: BIAcore; dissociation phase, 1:1 model
T3 construct: amine-coupled to the BIAcore chip; not shown: Fc part, not described
T3 sequence (P05362 28-480 limits assumed, stated change not applied): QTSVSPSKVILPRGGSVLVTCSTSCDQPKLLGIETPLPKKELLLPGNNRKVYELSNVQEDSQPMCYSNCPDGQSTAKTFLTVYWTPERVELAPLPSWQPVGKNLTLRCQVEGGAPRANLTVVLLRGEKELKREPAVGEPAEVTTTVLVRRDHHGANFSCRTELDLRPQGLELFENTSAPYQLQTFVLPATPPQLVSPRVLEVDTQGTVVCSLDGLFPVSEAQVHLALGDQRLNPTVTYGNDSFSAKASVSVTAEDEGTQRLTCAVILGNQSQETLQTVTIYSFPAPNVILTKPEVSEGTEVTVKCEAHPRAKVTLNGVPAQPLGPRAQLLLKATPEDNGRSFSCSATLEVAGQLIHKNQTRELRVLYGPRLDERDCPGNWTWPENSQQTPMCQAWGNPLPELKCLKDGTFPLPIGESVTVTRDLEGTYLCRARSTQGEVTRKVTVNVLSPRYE
Experimental: (§2) Recombinant soluble αL I-domains were expressed in E. coli, refolded and purified. Kinetics of binding of the I-domains to ICAM-1 was measured by BIAcore ™ instruments. Kinetics was analyzed BIAevaluation ™ software. KD was calculated by Scatchard plots using data at steady states. Koff was obtained by curve fining of the dissociation phase using 1:1 binding model. Kon was calculated by Koff/KD.

[4] = target: T3, recombinant ICAM-1 Fc chimera; assay: BIAcore; Scatchard plots at steady state
Experimental: as §2

[5] = target: T3, recombinant ICAM-1 Fc chimera; assay: BIAcore; Kon calculated by Koff/KD
Experimental: as §2

[6] = target: ICAM-1 (BIAcore, another study; construct not stated) (UniProt P05362 28-480, limits assumed); assay: BIAcore, another study
Sequence of ICAM-1 (BIAcore, another study; construct not stated) (P05362 28-480 limits assumed): as the sequence (P05362 28-480 limits assumed, stated change not applied) above

[7] = target: T4, murine ICAM-1 (murine, UniProt P13597 28-485, limits assumed); assay: BIAcore (not described further)
T4 construct: on EL-4 cells in the aggregation assay
T4 sequence (P13597 28-485 limits assumed): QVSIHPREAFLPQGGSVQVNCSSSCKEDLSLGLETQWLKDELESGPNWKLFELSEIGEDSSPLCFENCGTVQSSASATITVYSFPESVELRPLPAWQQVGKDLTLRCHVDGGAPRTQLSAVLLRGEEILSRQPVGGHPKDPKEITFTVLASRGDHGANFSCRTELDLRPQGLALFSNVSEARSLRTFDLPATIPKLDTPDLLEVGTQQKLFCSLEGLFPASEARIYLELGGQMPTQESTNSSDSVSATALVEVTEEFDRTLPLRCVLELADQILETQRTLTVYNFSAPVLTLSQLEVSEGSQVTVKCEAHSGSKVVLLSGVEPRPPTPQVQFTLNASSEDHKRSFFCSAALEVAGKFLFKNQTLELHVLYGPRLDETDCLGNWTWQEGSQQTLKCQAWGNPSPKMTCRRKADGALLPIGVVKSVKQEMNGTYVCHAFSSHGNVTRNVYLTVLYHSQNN

[8] = target: T1, recombinant ICAM-2 Fc chimera; assay: BIAcore, ICAM Fc chimera immobilized, 1:1 model
Experimental: as §1

[9] = target: T3, recombinant ICAM-1 Fc chimera; assay: BIAcore, ICAM Fc chimera immobilized, 1:1 model
Experimental: as §1

[10] = target: T2, recombinant ICAM-3 Fc chimera; assay: BIAcore, ICAM Fc chimera immobilized, 1:1 model
Experimental: as §1

| Binder | koff [3] [s⁻¹] | Kd [4] [µM] | kon [5] [M⁻¹ s⁻¹] | other results |
| --- | --- | --- | --- | --- |
| recombinant soluble wild-type αL I-domain (G128-Y307), E. coli (receptor, numbers as printed, probably mature αL numbering; also called soluble wild-type I domain; wild-type I-domain) GNVDLVFLFDGSMSLQPDEFQKILDFMKDVMKKLSNTSYQFAAVQFSTSYKTEFDFSDYVKRKDPDALLKHVKHMLLLTNTFGAINYVATEVFREELGARPDATKVLIIITDGEATDSGNIDAAKDIIRYIIGIGKHFQTKESQETLHKFASKPASEFVKILDTFEKLKDLFTELQKKIY |  |  |  | binding result [1]: no binding; binding result [2]: no binding |
| recombinant soluble αL I-domain L161C/F299C (locked open, intermediate affinity) (receptor) GNVDLVFLFDGSMSLQPDEFQKILDFMKDVMKKCSNTSYQFAAVQFSTSYKTEFDFSDYVKRKDPDALLKHVKHMLLLTNTFGAINYVATEVFREELGARPDATKVLIIITDGEATDSGNIDAAKDIIRYIIGIGKHFQTKESQETLHKFASKPASEFVKILDTFEKLKDLCTELQKKIY | 0.513 | 3.76 | 136000 |  |
| recombinant soluble αL I-domain stabilized in the open conformation (K287C/K294C), G128-Y307, E. coli (receptor, introduced disulfide C287-C294, numbers as printed, probably mature αL numbering; also called open I-domain; soluble open I-domain) GNVDLVFLFDGSMSLQPDEFQKILDFMKDVMKKLSNTSYQFAAVQFSTSYKTEFDFSDYVKRKDPDALLKHVKHMLLLTNTFGAINYVATEVFREELGARPDATKVLIIITDGEATDSGNIDAAKDIIRYIIGIGKHFQTKESQETLHKFASKPASEFVCILDTFECLKDLFTELQKKIY | 0.023 | 0.18 | 128000 | Kd [6]: 0.2 µM; binding result [7]: binds; Kd [8]: 0.513 µM; koff [8]: 0.0118 s⁻¹; kon [8]: 23000 M⁻¹ s⁻¹; Kd [9]: 0.18 µM; koff [9]: 0.023 s⁻¹; kon [9]: 128000 M⁻¹ s⁻¹; Kd [10]: 3.94 µM; koff [10]: 0.0749 s⁻¹; kon [10]: 19000 M⁻¹ s⁻¹ |
| recombinant soluble αL I-domain L289C/K294C (locked closed) (receptor) GNVDLVFLFDGSMSLQPDEFQKILDFMKDVMKKLSNTSYQFAAVQFSTSYKTEFDFSDYVKRKDPDALLKHVKHMLLLTNTFGAINYVATEVFREELGARPDATKVLIIITDGEATDSGNIDAAKDIIRYIIGIGKHFQTKESQETLHKFASKPASEFVKICDTFECLKDLFTELQKKIY | 2.84 | 1760 | 2110 |  |
| recombinant soluble αL I-domain K160C/F299C (locked open, intermediate affinity) (receptor) GNVDLVFLFDGSMSLQPDEFQKILDFMKDVMKCLSNTSYQFAAVQFSTSYKTEFDFSDYVKRKDPDALLKHVKHMLLLTNTFGAINYVATEVFREELGARPDATKVLIIITDGEATDSGNIDAAKDIIRYIIGIGKHFQTKESQETLHKFASKPASEFVKILDTFEKLKDLCTELQKKIY | 0.67 | 4.39 | 153000 |  |
| recombinant soluble αL I-domain L161C/T300C (locked open, intermediate affinity) (receptor) GNVDLVFLFDGSMSLQPDEFQKILDFMKDVMKKCSNTSYQFAAVQFSTSYKTEFDFSDYVKRKDPDALLKHVKHMLLLTNTFGAINYVATEVFREELGARPDATKVLIIITDGEATDSGNIDAAKDIIRYIIGIGKHFQTKESQETLHKFASKPASEFVKILDTFEKLKDLFCELQKKIY | 0.65 | 4.8 | 135000 |  |
| recombinant soluble αL I-domain E284C/E301C (locked open) (receptor) GNVDLVFLFDGSMSLQPDEFQKILDFMKDVMKKLSNTSYQFAAVQFSTSYKTEFDFSDYVKRKDPDALLKHVKHMLLLTNTFGAINYVATEVFREELGARPDATKVLIIITDGEATDSGNIDAAKDIIRYIIGIGKHFQTKESQETLHKFASKPASCFVKILDTFEKLKDLFTCLQKKIY | 0.0459 | 0.36 | 128000 |  |
